Experimental findings from paper PMC4450592 are described below.

In experiment [1] the target is HIS-gG3PD (full-length gG3PD, N-terminal 6xHIS-tagged) (Giardia duodenalis (isolate WB clone C6)). The experiment is described as follows: native gel or EMSA; 3-12% Blue Native PAGE of purified HIS-tagged recombinant proteins (1 μg by the methods, 3 μmol by the legend), silver stain or anti-HIS blot. On the technique in general: A gel shift assay detects complexes by their altered migration in electrophoresis.

Experiment [2] has as its target HIS-gG3PD_C (C-terminal half of gG3PD, N-terminal 6xHIS-tagged) (Giardia duodenalis (isolate WB clone C6)). The experiment is described as above.

For the substance “HIS-gG3PD (full-length gG3PD, N-terminal 6xHIS-tagged) (enzyme)”, in experiment [1], the stoichiometry N worked out at 2.
Take “HIS-gG3PD_C (C-terminal half of gG3PD, N-terminal 6xHIS-tagged) (domain or fragment)”: the stoichiometry N in experiment [2] was determined as 2.

A word on the stoichiometry N: it is a count of units in the complex or per binding partner.
